Results: US20220213153A1 (University of Washington, published 2022)

Experiments:
[1] = molecular target: T1, D2_Wm-01_truncB; test: SEC and negative-stain EM of the two-component ring
T1 construct: D2_Wm-01B with one heptad deleted from the homodimer helices; also called component B of D2_Wm-01_trunc; D2-1_trunc
T1 chain: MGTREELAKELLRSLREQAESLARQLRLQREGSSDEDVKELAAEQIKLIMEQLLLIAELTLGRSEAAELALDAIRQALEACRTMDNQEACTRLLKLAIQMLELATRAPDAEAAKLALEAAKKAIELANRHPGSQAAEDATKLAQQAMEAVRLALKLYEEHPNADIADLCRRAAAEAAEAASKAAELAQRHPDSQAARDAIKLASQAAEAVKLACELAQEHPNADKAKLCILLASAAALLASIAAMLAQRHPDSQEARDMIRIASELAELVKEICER

[2] = molecular target: T2, D2_Wm-01B; test: Ni-NTA pulldown of bicistronically co-expressed components (one His-tagged), SDS-PAGE, SEC, SAXS
T2 construct: De novo designed component of the two-component D2 dihedral ring D2_Wm-01; untagged (only one component carries the 6xHis tag); also called component B of D2_Wm-01; D2-1
T2 chain: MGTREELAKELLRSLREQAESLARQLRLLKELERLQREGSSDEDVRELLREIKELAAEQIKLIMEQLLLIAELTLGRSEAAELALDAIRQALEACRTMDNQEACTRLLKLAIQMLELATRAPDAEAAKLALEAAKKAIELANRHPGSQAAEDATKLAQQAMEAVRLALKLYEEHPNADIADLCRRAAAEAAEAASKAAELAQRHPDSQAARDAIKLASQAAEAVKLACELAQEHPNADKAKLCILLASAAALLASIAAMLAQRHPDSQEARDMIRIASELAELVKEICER

[3] = molecular target: T3, D2_Wm-02B; test: as above
T3 construct: De novo designed component of the two-component D2 dihedral ring D2_Wm-02; also called component B of D2_Wm-02; D2-2
T3 chain: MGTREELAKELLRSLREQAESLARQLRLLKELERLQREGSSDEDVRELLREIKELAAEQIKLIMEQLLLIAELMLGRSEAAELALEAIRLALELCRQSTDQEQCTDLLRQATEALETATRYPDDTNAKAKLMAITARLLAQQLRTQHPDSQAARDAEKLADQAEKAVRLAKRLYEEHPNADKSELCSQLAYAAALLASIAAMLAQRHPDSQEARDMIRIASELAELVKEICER

B1: D2_Wm-01_truncA (designed binder)
chain: MGTREESLKEQLRSLREQAELAARLLRLQREGSSDEDVKELVAEIIKLIMEQLLLIAEQLLGRSEAAELALRAIRLALELCRQSTDLEECLRLLKTAIKALENALRHPDSTTAKARLMAITARLLAQQLRTQHPDSQAARDAEKLADQAERAVRLATRLYEEHPNAEISEMCSQAAYAAALMASIAAILAQRHPDSQIARDLIRLASELAEMVKRMCERGGSWGLEHHHHHH
notes: D2_Wm-01A with one heptad deleted from the homodimer helices; also called component A of D2_Wm-01_trunc; D2-1_trunc
Q: Does B1 bind [1]?
A: binds

B2: D2_Wm-01A (designed binder)
chain: MGTREESLKEQLRSLREQAELAARLLRLLKELERLQREGSSDEDVRELLREIKELVAEIIKLIMEQLLLIAEQLLGRSEAAELALRAIRLALELCRQSTDLEECLRLLKTAIKALENALRHPDSTTAKARLMAITARLLAQQLRTQHPDSQAARDAEKLADQAERAVRLATRLYEEHPNAEISEMCSQAAYAAALMASIAAILAQRHPDSQIARDLIRLASELAEMVKRMCERGGSWGLEHHHHHH
notes: De novo designed component of the two-component D2 dihedral ring D2_Wm-01 (8 chains in all, 2 chains as the asymmetric unit); also called component A of D2_Wm-01; D2-1
Q: Does B2 bind [2]?
A: binds

B3: D2_Wm-02A (designed binder)
chain: MGTREEIIRELARSLAEQAELTARLERSLREQERLQREGSSDEDVRELIREQKELVREILKLIAEQILLIAELLLASTRSEAAELALRAIRNAIEACKNADNEEMCRQLMRMAQNALELATQAPDAEAAKAALRAIDLAVELASRHPGSQAADDALKLAQQAAEAVKLALDLYREHPNADIADLCRKAAKEAAEAASKAAELAQRHPDSQAARDAIKLASQAAEAVKLACELAQEHPNAEIAKMCILAASAAALMASIAAILAQRHPDSQIARDLIRLASELAEMVKRMCERGGSWGLEHHHHHH
notes: De novo designed component of the two-component D2 dihedral ring D2_Wm-02; also called component A of D2_Wm-02; D2-2
Q: Does B3 bind [3]?
A: binds
